Reference: the supplement of paper PMC10724198
± gives the standard deviation of the averaged measurements.

Assays:
Saccharomyces cerevisiae [1] = assay: protein stability index of tFT-peptide fusion (C-terminal peptide) (PSI (0-1 scale)); higher = more stable (slower turnover); conditions: genetic background: wild type; temperature: 30 C
Saccharomyces cerevisiae [2] = assay: as above
Experimental: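 MPS profiling in S. cerevisiae of the tFT-X12 degron library: putative degron peptides plus stable controls, 12 aa, fused to the C-terminus of a sfGFP-mCherry timer. Cells are FACS-sorted into 8 mCherry/sfGFP bins and deep-sequenced. PSI runs from 0 (unstable) to 1 (stable). Backgrounds are wild type, das1Δ and doa10Δ at 30 °C, and wild type, das1Δ, cdc34-1 and cdc53-1 at 37 °C; 2-3 technical replicates each.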

[3] = genetic background: cdc34-1, temperature: 37 C
[4] = genetic background: cdc53-1, temperature: 37 C
[5] = genetic background: das1 deletion, temperature: 30 C
[6] = genetic background: das1 deletion, temperature: 37 C
[7] = genetic background: doa10 deletion, temperature: 30 C
[8] = genetic background: wild type, temperature: 30 C
[9] = genetic background: wild type, temperature: 37 C
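Note: PSI is a weighted mean of sequencing reads over stability bins, variants kept only with over 10 reads, mCherry proximal and sfGFP distal, peptide attached via GGGS linker.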

| Sequence | protein stability index (Saccharomyces cerevisiae [1]) | protein stability index (Saccharomyces cerevisiae [2]; [3]) | protein stability index (Saccharomyces cerevisiae [2]; [4]) | protein stability index (Saccharomyces cerevisiae [2]; [5]) | protein stability index (Saccharomyces cerevisiae [2]; [6]) | protein stability index (Saccharomyces cerevisiae [2]; [7]) | protein stability index (Saccharomyces cerevisiae [2]; [8]) | protein stability index (Saccharomyces cerevisiae [2]; [9]) |
| --- | --- | --- | --- | --- | --- | --- | --- | --- |
| QDFFYCLLVATS | 0.317 ± 0.029 | 0.155 ± 0.0058 | 0.276 ± 0.015 | 0.21 ± 0.038 | 0.3605 ± 0.003 | 0.174 ± 0.0022 | 0.205 ± 0.03 | 0.305 ± 0.0038 |
| QGILVGCCYVLC | 0.386 ± 0.022 | 0.426 ± 0.024 | 0.4409 ± 0.00073 | 0.313 ± 0.021 | 0.5035 ± 0.00077 | 0.2731 ± 0.0018 | 0.3 ± 0.023 | 0.4657 ± 0.0015 |
| QLGGKVGNCHVV | 0.75 ± 0.021 | 0.683 ± 0.046 | 0.7507 ± 0.0047 | 0.6644 ± 0.0051 | 0.732 ± 0.025 | 0.668 ± 0.05 | 0.652 ± 0.009 | 0.715 ± 0.034 |
| QVGRPRVGFSRR | 0.764 ± 0.014 | 0.704 ± 0.035 | 0.7483 ± 1.4e-05 | 0.652 ± 0.0075 | 0.75 ± 0.016 | 0.657 ± 0.016 | 0.66 ± 0.02 | 0.7302 ± 0.0063 |
| RAFFLLYCTLWA | 0.206 ± 0.04 | 0.0997 ± 0.0085 | 0.204 ± 0.039 | 0.163 ± 0.027 | 0.266 ± 0.012 | 0.132 ± 0.016 | 0.161 ± 0.025 | 0.24 ± 0.0077 |
| RALYLLALVGVS | 0.362 ± 0.11 | 0.234 ± 0.0075 | 0.254 ± 0.02 | 0.223 ± 0.034 | 0.371 ± 0.0042 | 0.169 ± 0.0096 | 0.214 ± 0.024 | 0.3484 ± 0.0029 |
| RARFMLGVLLST | 0.451 ± 0.021 | 0.5525 ± 0.0044 | 0.617 ± 0.033 | 0.487 ± 0.028 | 0.5834 ± 0.0054 | 0.314 ± 0.0056 | 0.352 ± 0.024 | 0.49366 ± 3e-05 |
| RARLRFASLRAF | 0.176 ± 0.01 | 0.546 ± 0.015 | 0.629 ± 0.079 | 0.64 ± 0.13 | 0.644 ± 0.029 | 0.144 ± 0.012 | 0.122 ± 0.008 | 0.217 ± 0.018 |
| RDRHFKIQTCIM | 0.388 ± 0.0046 | 0.662 ± 0.016 | 0.721 ± 0.017 | 0.648 ± 0.02 | 0.717 ± 0.014 | 0.24 ± 0.017 | 0.246 ± 0.039 | 0.515 ± 0.035 |
| RFCLLFVVAGGV | 0.457 ± 0.017 | 0.516 ± 0.0057 | 0.527 ± 0.024 | 0.343 ± 0.019 | 0.546 ± 0.0069 | 0.35 ± 0.035 | 0.371 ± 0.018 | 0.516 ± 0.015 |
| RFFFFFPCLLAP | 0.457 ± 0.048 | 0.349 ± 0.011 | 0.3411 ± 0.001 | 0.417 ± 0.019 | 0.525 ± 0.026 | 0.519 ± 0.025 | 0.418 ± 0.029 | 0.486 ± 0.006 |
| RFYLFLFFVRST | 0.175 ± 0.0048 | 0.302 ± 0.055 | 0.4403 ± 0.0022 | 0.316 ± 0.039 | 0.5488 ± 0.0049 | 0.113 ± 0.0039 | 0.11 ± 0.008 | 0.131 ± 0.012 |
| RGGVCFVVWCGG | 0.429 | 0.46 ± 0.03 | 0.503 ± 0.095 | 0.435 ± 0.0077 | 0.475 ± 0.029 | 0.4305 ± 0.00076 | 0.432 ± 0.0053 | 0.441 ± 0.0061 |
| RGRLKSSYFILF | 0.497 ± 0.074 | 0.7 ± 0.032 | 0.7127 ± 0.0056 | 0.65 ± 0.013 | 0.7509 ± 0.0052 | 0.49 ± 0.0063 | 0.534 ± 0.047 | 0.671 ± 0.017 |
| RGWNGFWVVVVW | 0.307 ± 0.0078 | 0.216 ± 0.015 | 0.305 ± 0.03 | 0.239 ± 0.039 | 0.4155 ± 0.0011 | 0.213 ± 0.0046 | 0.227 ± 0.035 | 0.368 ± 0.032 |
| RIKVTRRIIIYA | 0.299 ± 0.011 | 0.335 ± 0.036 | 0.383 ± 0.07 | 0.239 ± 0.054 | 0.446 ± 0.014 | 0.14 ± 0.0072 | 0.179 ± 0.022 | 0.302 ± 0.018 |
| RILSLQFILCKR | 0.463 ± 0.0058 | 0.607 ± 0.025 | 0.649 ± 0.015 | 0.538 ± 0.024 | 0.64 ± 0.0078 | 0.407 ± 0.013 | 0.414 ± 0.043 | 0.546 ± 0.019 |
| RLARRGGGWGPG | 0.5 ± 0.1 | 0.681 ± 0.012 | 0.7334 ± 0.0049 | 0.657 ± 0.034 | 0.706 ± 0.022 | 0.657 ± 0.034 | 0.67 ± 0.046 | 0.7281 ± 0.00042 |
| RLELTRIMIVAI | 0.207 ± 0.035 | 0.06 ± 0.0059 | 0.08016 ± 0.00021 | 0.182 ± 0.024 | 0.214 ± 0.0094 | 0.109 ± 0.015 | 0.117 ± 0.028 | 0.102 ± 0.02 |
| RLGIRCLYLRFI | 0.306 ± 0.011 | 0.406 ± 0.1 | 0.422 ± 0.052 | 0.482 ± 0.059 | 0.5974 ± 0.0019 | 0.25 ± 0.015 | 0.216 ± 0.035 | 0.363 ± 0.016 |
